Assay results from paper PMC9210659.

Target: C16-Pks13(S1533A) (Pks13(S1533A) loaded with a C16 chain on the AT catalytic serine) (Mycobacterium tuberculosis H37Rv) (UniProt I6X8D2)
Test: SEC + other: SAXS

## C16-Pks13(S1533A) (Pks13(S1533A) loaded with a C16 chain on the AT catalytic serine) (from UniProt I6X8D2 1-1733) (enzyme)
  percent dimer: 60%
  stoichiometry N: 2
